What all share (conditions): partners not purified
Assay [1] deals with T1, HA-tagged SQSTM1 C-terminal region (221–440 aa) (Homo sapiens (Human)., UniProt Q13501).
T1 construct: also called C-terminal SQSTM1; source: transfected, in cells (isPLA, co-IP)
In words: proximity ligation; single sdAb DNA transfected along with HA-tagged SQSTM1 or its truncations; isPLA with anti-HA and anti-Flag antibodies 48 h after transfection.

For assay [2], the target named is T2, HA-tagged SQSTM1 N-terminal region (1–220 aa) (Homo sapiens (Human)., UniProt Q13501).
T2 construct: SQSTM1, residues 1-220; also called N-terminal region of SQSTM1 (1–220 aa); source: transfected, in cells (isPLA)
The assay is described as above.

For another assay, the target named is T3, HA-tagged SQSTM1 (Homo sapiens (Human)., UniProt Q13501).
T3 construct: autophagy receptor SQSTM1, full length; the printed limits 1-440 fit the human protein; also called HA-tagged bait; full length; source: HEK293T, transfected, in fixed cells (screen)
In words: proximity ligation; pooled screen (isPLA-seq): Flag-tagged sdAb library co-transfected with HA-tagged SQSTM1 into HEK293T cells, fixed after 48 h, isPLA with anti-HA and anti-Flag antibodies, positive cells sorted by FACS, three rounds, CDR3 sequenced. (A flow cytometer gives signals particle by particle.)

B1: Flag-tagged anti-SQSTM1 sdAb clone #1 (VHH)
VHH: QVQLVESGGGSVQAGGSLRLSCTASGGSEYSYSTFSLGWFRQAPGQEREAVAAIASMGGLTYYADSVKGRFTISRDNAKNTVTLQMNNLKPEDTAIYYCAAEGLVYWTTKKSFGGCLLHDWSWGQGTQVTVSS
notes: 21-aa CDR3 in place of the CDR3 of cAbBCII10; also called anti-SQSTM1 clone #1; sdAb #1; source: HEK293T, transfected (sdAb library in pcDNA3.1), in fixed cells; not shown: 3x Flag, C-terminal, kept
With B1, the binding result is on record as “binds” in assay [1], “no binding” in assay [2] and “binds” with HA-tagged SQSTM1.

Values taken from PMC8548206, “Single-domain antibody screening by isPLA-seq” (Life Science Alliance, 2021).
